Test: soluble fraction after stress (log2 fold change); higher = more stays soluble; pooled small domains, quantitative proteomics
Settings: stress: pH 4
Method in brief: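 Values are on a log2 scale, where higher means more of the domain stayed soluble after pH 4 stress. They are fold changes in the soluble amount of each domain from pooled custom libraries, measured by high-throughput quantitative proteomics. The fold change is taken to reflect aggregation propensity.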

Sequence | soluble fraction (log2)
HMGNPSGLPLPRFASTRSEPINVRVGPGQKYDIAWTYLKSGIPVEIIQEFDTWRKIRDFDGAEGWIHQNLL | -0.398
HMVNTYILNNKEYPIEIIRKNNKNTYLRVKEGKIIVTTNYLTSSFTINKLIKDNTSFINKALLKEN | -0.0629
HMTAIWKTITATLTHDIATGKYAPGDRLPTEAQLAARFGVNRHTVRRAISDMNESGLTYSRRGAGVFVAQ | ≥ 0.43
HMDFGHWAAHKLEQMSEYRLRHGEAVAIGIALDVLYSVRQGLLARPAAERILSLLERLGFTLFDPELKS | -0.291
HMTDTSFPRLGAPEEELLSFLAKWEIDAEDAHYTKFSLYYQSTGKMMRDWKATWRAWKERQSELNAQR | -1.05
HMNFTETENRIYEEILKNVKQHKKKTVVQIAEKVDVAPSYVIKVAKKLGYSGLNEMWYSLSGIY | -0.0318
HMTDDPGLSRAENRELQTLLLDRGHDIGQPDGLIGAKTRAAIRAEQSRLNMPVNGRGGQKLLRALRL | -0.46
HMSDVVFRINANGLNVSGLANGERVSVYDTTGKLVTTAVSTQDNGTLNLPLKQSGGIYIARTQSGVSFKFT | 0.108
HMRNSSLQTDLELRAYVIDGLNHFWTPEEIAGRWSLAHPDRPVSFATIYRHIKRKLLPGIEPKTHLRRRGK | ≥ 0.43
HMTGTKEQQVVMLNNILQKQLQAFELQGKRDYPMVTMKNMYNTLSKMVENAGLQTVESYFVDPIKGQQM | -0.266
HMYEVVPNMRGLTYNQATAALAAAGLKVELSDSIYDEHTQPGTVLDQSPRPNTKVKPNRVVYLTVNAF | -0.0904
HMPYSPTPGSAPARLIAHLQEHGDSVNRTAIAELLQVDRKNVHNYLARAVTHGLLLRHGGGAYSLP | 0.207
HMGLDNEGFERLRQKITRLLSEEALPVKELVDSFASKMRQEVLETLAFLQQEGVIEEKNGKLFLK | -0.283
HMTKPTLMEVEIKGAIQNPGVYTLKRNSSISKLIKMSGPLLENADTSSISFTHILQDKDVVVIPEIK | -0.177
HMFPASQPVPTDLNQIVRAGLEVFSGRLEGIDVRVSLEPELPRVNVDPEHFKRIVVNLVDNAAEAMQNS | -0.0189
HMRVDDITDTILNVLKEQGGFISVTDKSSPETINKLFGVSKKTYKKAIGAIYRKKLIIIEDDGIRLNS | -0.219
HMNMFDMRKTGARISQLRRAAGLTQAELAEKLGISYQAVSSWERGSNMPDIGKLLDLARILNTTVDALLSA | 0.309
HMHNSQTIIDNIKRIANEQNISLSKLAVISGLGKNTITSMTAKTNIKIETLTAIAKSLNVSIHDLTGE | 0.0739
HMLVIMKTGASEEEIGRVIERIEGEGLSAHVSRGTERTVIGVIGQGVDVHRIAGVLGGMSGVESLVPIS | 0.0269

Sequence | soluble fraction (log2)
HMQTPVTVGDTMPNLIGTPKRLLLELLNRTDITVKLTGDGYVTAQSPAAGTPIAKGMIIELSL | 0.19
HMNVVINNELVSLMVEAMKDGVSSKSIQEEFEGYKISGKTITKKVLTAHVNKALEVFADMQE | -0.477
HMNVSDIENKLNEMLSPLEKKVMVLYLEGKSYVEIGELLGRHTKSVDNALQRVKRKLEIYLKNRK | 0.295
HMNYKDQISRYFQQAFHIYPKYQTMKNEEGNFTSKIFKDDKMIIEGVGKSKKKAEQDVSRKALIHFNVL | 0.398
HMDAQEAAWARKMMETLPEKQKLSVALRIEEGLSFKEIGEIIGSSEGAARVNYFHGIRRLRELL | -0.768
HMENVQLRNFAIKATEAGIIKLSSDQRTFMWASNQKKLMTVPFDEHPYSAMAQFFKTDEGLAVFKSIEKKL | -0.428
HMLVLAENMDVIFTRRTLDDHVVVDYKTTIGEMVKNDEIKGENMDELISAVEKDGYELVSSTSGEIIFLND | -0.704
HMDTNELIDRYVNEVGQHLPRKTRADIEMELRSLLLDTLEEQSGGEPTPKMAAEVLREFGHPEEIAAQYH | -0.755
HMLMKILTDALEKMSPEELKELAEATGVKNTSSITPETMVGVFQAVFRVGGFKSYQLTLIIVNAVLKA | -0.398
HMGAQPLIEPLSERELEVLALIAEGLTNAEIGRRLFIATGTVKRHVNTIYGKLDVHGRIEAIARARDLHLI | -0.66
HMATPTEHQLQAQARAVVEKAERLLDRASADDREDIINLIEKITDALAAEDFTAVKAPLAELSDILFYLE | -0.27
HMAKPVKSPLPGSVIKVAVKVGQQIKRGDLLLTLESMKMENSILAEKDGVVKNIHVQAGQSVMQDDLLLDI | -0.957
HMPIKYTHKGYTINVSRSKMNGTTFVKVVDPKGQVIQQSQDNRIQDVNQLVTTMKQYIDTLKPS | -0.0336
HMFSSVSVPAELSNQRFDKVVAELTPDLSRSKIKQLILLGKVLLNGEVTPPKQKVETGDEIEIFYTRQIE | -0.23
HMGLAWTVEGRTVLLGRTADRIELYNVGGGLVALARESDRISAPGVGLYVVRVVSDGQSVSQKIWIT | -0.325
HMDINEIILKVASEKKTFKTSDVLEALDNNYTKQHVSALISAMVKKGILVKAGSTAKSTYALPENASLL | 0.0858
HMVSLSNQVFEKIEYDILSGKYKIGEIISEKRLSSELGVSRTPIREALGRLSEEGLVGDSPSGTVVLGI | -0.287
HMGKSDDSLAAEKFIQHVRKNGELSYEQAYRMVHAYFPDFRNFEGMVSGAVKSGYLILIQKSTGLFLRAKE | -0.205
HMGPAVGAIRVEGNKRVEPETVRTYLTFNVGDPYDLAKVDESLKALFATGLFQDVRIRREGNTVVIVVVEN | -1.07

Reference: the domain aggregation screens of Martell et al. (2025)
